Data published in the DeepSol protein solubility set.

Test: soluble on expression in E. coli; label from the status in PepcDB or PDB records

Row | Sequence | soluble on expression in E. coli
1 | MIRKWDTKDTAPLLALWLDSTIHAHPFISESYWRDSVAVVRDVYLPAASTWVWEQDGELKGFVSVLDSRFVGALFVAPGATRQGIGRALLDEVKQHYAWLSLEVYQKNESAVSFYHAQGFRIEDCAWQDDTQHPTWIMRWPADQMP | not soluble
2 | MAVQKNVIKGILAGTFALMLSGCVTVPDAIKGSSPTPQQDLVRVMSAPQLYVGQEARFGGKVVAVQNQQGKTRLEIATVPLDSGARPTLGEPSRGRIYADVNGFLDPVDFRGQLVTVVGPITGAVDGKIGNTPYKFMVMQATGYKRWHLTQQVIMPPQPIDPWFYGGRGWPYGHGGWGWYNPGPARVQTVVTE | not soluble
3 | MSLHAAAVGPSVLPDLREQVEQIIAEARRQGASACEVAVSLEQGLSTSVRQGEVETVEFNRDQGFGITLYAGQRKGSASTSATGEAAIRETVAAALAIARHTSEDECAGLADAALMARELPELDLYHPWSLSPEQAVERALACEAAAFAADKRVTKADGTTLNTHQGCRVYGNSHGFIGGYASTRHSLSCVMIAEGEGQMQRDYWYDVNRRGEALASAESIGRRAAERAASRLGARPVQTAEVPVLFAPEIAVGLFGHFLGAISGGSLYRKSSFLEGALGQRLFPEWLSIDERPHLVGALGSASFDSDGLATYAKPFVENGELVSYVLGTYSGRKLGLPSTANAGGVHNLFVSHGDEDQAALIRRMERGLLVTELMGQGVNLVTGDYSRGAAGYWVENGEIQFPVQEVTIAANLRDLFRRIVAVGKDIERRGNLHTGSVLVESMMVAGR | soluble
4 | MGLSCTDDWRVIDLPGSFITVTNLNQFTLNGDGFAARMEMTLVAPDHGGDSDLIAMGELIEQAISGVRSLGGAIESIELNQQVTPPHGGKAPASTMTFTLFYDMENEE | not soluble
5 | MGSDKIHHHHHHMQNPQQVSASKTLSPILVQGAMDIEVETLIAALGKVTVNTFGSWTFWEGELSGHPVVVSRTEIGLANAAAATTLAIAHYRPKLIINQGTAGGHDPKLYRGDIVIGETSFNMGSYLTKLTPKGQGIHPTQWQNFDMTMYLRENGEVVKHNHFKADPALVEVALSQAHHYTKGNVVKGIIGTGDEWNRELDRINWLHHTFGTAVEEMETSAAALVAEAYKLPFVSIRILSNTDQHDQDCDPQTAVDCQQFVLNIIQQLINTTK | not soluble
6 | DGDQCETSPCQNQGKCKDGLGEYTCTCLEGFEGKNCELFTRKLCSLDNGDCDQFCHEEQNSVVCSCARGYTLADNGKACIPTGPYPCGKQTLERRKRSVAQATSSSGEAPDSITWKPYDAADLDPTENPFDLLDFNQTQPERGDNNLTR | soluble
7 | MGSDKIHHHHHHMRIFFLDQSGKPGGAELCLIDIAKPYSHSALVGLFADGPFKDLLEQNHIPVEILATQTIQVSKESSLAQGLKSLGQLAPLITKVIKKAREYDLIYANTQKALVVGALASFFSRRPLVYHLHDILSTEHFSQTNLRIAINLANRCASLVIANSQASKTAFIQAGGRSDIVEVVYNGFDLKIYQTDEPGINQLQQKLGLQGKFVVGHFSRLAPWKGQHILIDALAKCPPEVTVILVGDALFGEQDYAQKLHKQVTDLGLENRVKFLGFRSDIPQLMAACDLVAHTSTSPEPFGRVIVEAMLCGKPVVAAKAGGVMELVEHGLNGFLVTPGEPQELAQVIITCLQETEITATIANNARTTASRRFDVATINQQIAQLLSHRF | not soluble
8 | MSCHTSCIDHTSALIHCADEVFEKPLPHLFEAAVFLMGFTLWGKLEFNQRDGFLDCPHGDRVCGSGMMSKVDILQLTGHFFTNFNGRDYIENIQNLFDNQLASYHIRNQFLIGIQRLGHRKLLIAF | not soluble
9 | VADRYAVYWNSSNPRFQRGDYHIDVCINDYLDVFCPHYEDSVPEDKTERYVLYMVNFDGYSACDHTSKGFKRWECNRPHSPNGPLKFSEKFQLFTPFSLGFEFRPGREYFYISSAIPDNGRRSCLKLKVFVRPTNSCM | soluble
10 | MSLQQGDRVPAGLTLTNQAGESFRIGDYRGQTLVLTFIYTRCPLPTYCPLMSKQFAALQPQLRERYGEEAQLLSISFDPAYDTPQVLREYASKYTDRLDTWTFATGDSSQVERATGLFGVHAQKTGSEEITHNLTTALIGSEGHVRRLWRGNDWTPEDVRQAVAQVAEASEGHHHHHH | soluble
11 | SQPDHGRLSPPEAPDRPTISTASETSVYVTWIPRGNGGFPIQSFRVEYKKLKKVGDWILATSAIPPSRLSVEITGLEKGISYKFRVRALNMLGESEPSAPSRPYVVSG | soluble
12 | MSGRLTGKVALVSGGARGMGASHVRAMVAEGAKVVFGDILDEEGKAMAAELADAARYVHLDVTQPAQWKAAVDTAVTAFGGLHVLVNNAGILNIGTIEDYALTEWQRILDVNLTGVFLGIRAVVKPMKEAGRGSIINISSIEGLAGTVACHGYTATKFAVRGLTKSTALELGPSGIRVNSIHPGLVKTPMTDWVPEDIFQTALGRAAEPVEVSNLVVYLASDESSYSTGAEFVVDGGTVAGLAHNDFGAVEVSSQPEWVT | soluble
13 | MSSNDSSLMAGIIYYSQEKYFHHVQQAAAVGLEKFSNDPVLKFFKAYGVLKEEHIQDAISDLESIRHHPDVSLCSTMALIYAHKRCEIIDQEAIQELEYSLKEIRKTLSGTALYYAGLFLWLIGRHDKAKEYIDRMLKISRGFREAYVLRGWVDLTSDKPHTAKKAIEYLEQGIQDTKDVLGLMGKAMYFMMQQNYSEALEVVNQITVTSGSFLPALVLKMQLFLARQDWEQTVEMGHRILEKDESNIDACQILTVHELAREGNMTTVSSLKTQKVILETESRRNPS | not soluble
14 | MKDNLKEARRYLNNAKEMLSQKAKKEGKFYQDKKYIRLAGHAAYSGVLIALDNVLGNKDSGRKSVDWYKSELAKLDKKALTAFNGAYETLHLAMSYDGNIVANVSKSGIELADSIITWAETRTAAA | not soluble
15 | LEILRKNRINEPCIKLNTHSIANKIYATENYIIGIPTDHPDEISDAFTKSVAALLAKSNGIRTPELICFDDSYTIKALDKKLHKIGKAEDGACNLILDMLRLLRLAKDLF | not soluble
16 | MSLSVTIFSEFESEVRSYCRAFPAVFSRAKGEYLLAEDGRKFLDFFAGAGSLNYGHNDDDMIEAAISYMRQDGVLNGLDLNTSAKAEFIETFRTLVLQPRDLNYKLQFTGPTGANAVEAAMKLARKVTQRPDIACFSGGYHGMSLGALSVTANAVKRASLVVQVPGVVRLPYEGAIEGSVASQLRVLQDMLCRPGFGIDPPAAFLLECVQGEGGVNCASAEWLQGVAALARKLGALLIVDEIQTGCGRTGRFFSFEHACIEPDIICLSKSLGGGGLPFSLNLIKPEIDIWNPGEHNGTFRGNNLAMVMATAALRKYWATPHFAHEVEEKGLAVAACLKNALQAFDGQVRVVGKGLMIGLRFQHAEHAREASRRLFESGLLIEVCGPRNEVLKLMPVLTMDRQAMLAAASRIAACAQALLSRSLESETEGHHHHHH | soluble
17 | MGSDKIHHHHHHMLATTIGSIAMRRRVSSLVKVRPAGAATQPALGLRVPLVALVQALAVAEHLNFRHAADALGISQSSVSTRIKQLEQDLGVQLFERRHRGVRLTEAGQHFLEHVATGIEHLDHAVRTAGAIARGERGRLRVGLYSSIFAGFLAELLGQFRGQYPTVDLQIMEGRARDTIRAVREARLDVAFVVGVPKVSDCHSKPLWTEALFVALPERHALAEAEGVTWPALSGASFLARTGGPGPQVHDHIVLRLAGHWCQPRIQRFDVERDTLMSMVAQGYGITLTSEAAAQVPFPGVVFRPVLDETELITFSALWSPHNRCQTLLHLLALAEQKSEGRSLGI | not soluble
18 | MNPIVKAPTLNDLPAPPPGKTGWPWTEQNEALPEKMPDGSDWPKISIVTPSYNYGQFIEETIRSVLLQGYPNLEYIVVDGGSTDNTVTIIRKYEKYLKYWASEPDHGQTDAINKGYRYCSGDVFAWLNADDLYYDQSTLLKVINFYQKGYDLIVGECLNINADGTHFNQAITSTEKSDPTYFKKYLRYWSSGFLPQPAIFVKKEMADQCFPLSIELYYAMDFQFFLRVLNQEPKSVWIQEKLTRLRWHEDSKTMGTISRIDFHAIVPEPEVHKVALAEAENLPTWLEKIFFRIQAFDYLSLQPYINSLDNFHWLQITKTIVKRPTLAVWPLFWKIFFRSLLGEQIYKLLKRTIRTNLEHHHHHH | not soluble
19 | MLLPRCCWGRWLMGRRPRCSCQAPAGFDGKDGRGSRVREMPPWRVLFLGTDHFARETLRALHAARDGKEEKLIEKLEVVTVPSLSPKGLPVKQYAIQSQLPVYEWPDVGSGEYDVGVVASFGRLLSEALILKFPYGILNVHPSCLPRWRGPAPIIHTVLHGDTVTGVTIMQIRPKRFDIGPILQQETIPVPPKSTSKELEAVLSKLGANMLISVLKNLPESLNNGRPQPAEGVTYAPKVSAGTSCVKWEEQTSEQVLRLHLAIGDIVPLQTLWMENTVKLLDLVEVNNSILADPKLTGQTVTPGFVVYHRPSQMLLVRCKDGWIGVRSVMLKKTLTATDFYNGYLHAWYQKNSHAHPSQCRFQTLRLPTKMQQKTKLLLCNSALSS | soluble
20 | MGSDKIHHHHHHMRTKIGIYLSSEPESGGMFQYGLSILDAAASLPRDRYQTTVAFISERWNEHLKFRNLEHFQISPNFLWRIFKGKGWLLLNLPISFWRWILINLNPFFYKRLIQEGCDLWLFPSQDTWTYLLRLNSLGVVHDLMHRYEKKFSEVAAPFEYRRRERHYRAMCEYSKGILVDSNYGKRQVLESYDAKPDFIHVLPYVPPEYINIKNAPIDFDSRYNLPRKFLFYPAQFWEHKNHHNLLAALAHLKRELRDIHVVLVGSKKNAYKKTLGYINSMNLSDHVIILGYVPNEDMAEFYRRARALVFPSFFGPTNIPPLEACAAGCPLAVSNIYGMPEQLGDAALFFNPHSVEEIHLAMKRLWIDDALCRQLSMNGKKWAKAWNQNSFNRQFQVIIEEVLKNPNT | not soluble
21 | MGSDKIHHHHHHMENFVFHNPTKIVFGRGTIPKIGEEIKNAGIRKVLFLYGGGSIKKNGVYDQVVDSLKKHGIEWVEVSGVKPNPVLSKVHEAVEVAKKEKVEAVLGVGGGSVVDSAKAVAAGALYEGDIWDAFIGKYQIEKALPIFDVLTISATGTEMNGNAVITNEKTKEKYGVSSKALYPKVSIIDPSVQFTLPKEQTVYGAVDAISHILEYYFDGSSPEISNEIAEGTIRTIMKMTERLIEKPDDYEARANLAWSATIALNGTMAVGRRGGEWACHRIEHSLSALYDIAHGAGLAIVFPAWMKYVYRKNPAQFERFAKKIFGFEGEGEELILKGIEAFKNWLKKVGAPVSLKDAGIPEEDIDKIVDNVMLLVEKNLKPKGASLGRIMVLEREDVREILKLAAK | soluble
22 | MSLEVTTPGKLFIAGEYAVVEPGHPAIIVAVDQFVTVTVEETTDEGSIQSAQYSSLPIRWTRRNGELVLDIRENPFHYVLAAIHLTEKYAQEQNKELSFYHLKVTSELDSSNGRKYGLGSSGAVTVGTVKALNIFYDLGLENEEIFKLSALAHLAVQGNGSCGDIAASCYGGWIAFSTFDHDWVNQKVATETLTDLLAMDWPELMIFPLKVPKQLRLLIGWTGSPASTSDLVDRVHQSKEEKQAAYEQFLMKSRLCVETMINGFNTGKISVIQKQITKNRQLLAELSSLTGVVIETEALKNLCDLAESYTGAAKSSGAGGGDCGIVIFRQKSGILPLMTAWEKDGITPLPLHVYTYGQKECKEKHEGHHHHHH | soluble
